According to paper PMC2756588:

T1: Myo5, Q04439
T1 sequence (Q04439 1072-1160, looked up): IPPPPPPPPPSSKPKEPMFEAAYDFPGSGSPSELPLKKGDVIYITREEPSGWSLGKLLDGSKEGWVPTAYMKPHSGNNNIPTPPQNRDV

T2: Bbc1, P47068
T2 sequence (P47068 1-78, looked up): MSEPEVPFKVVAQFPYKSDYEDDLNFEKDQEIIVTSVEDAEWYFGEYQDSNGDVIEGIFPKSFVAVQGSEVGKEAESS

T3: Cdc25, P04821
T3 sequence (P04821 50-136, looked up): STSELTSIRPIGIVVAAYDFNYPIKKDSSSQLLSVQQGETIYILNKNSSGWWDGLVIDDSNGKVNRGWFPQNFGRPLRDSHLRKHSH

T4: Lsb1, P53281
T4 sequence (P53281 45-122, looked up): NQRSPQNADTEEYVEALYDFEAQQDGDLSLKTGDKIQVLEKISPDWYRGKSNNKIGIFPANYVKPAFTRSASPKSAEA

T5: Fus1, P11710
T5 sequence (P11710 432-512, looked up): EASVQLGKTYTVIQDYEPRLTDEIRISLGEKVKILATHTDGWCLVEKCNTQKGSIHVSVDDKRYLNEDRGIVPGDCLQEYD

T6: Lsb3, P43603
T6 sequence (P43603 385-451, looked up): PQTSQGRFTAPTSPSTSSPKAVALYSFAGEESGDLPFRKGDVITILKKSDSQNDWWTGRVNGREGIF

T7: Bzz1-2, P38822
T7 sequence (P38822 568-633, looked up): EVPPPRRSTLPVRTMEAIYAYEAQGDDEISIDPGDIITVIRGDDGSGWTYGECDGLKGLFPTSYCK

T8: Boi1, P38041
T8 sequence (P38041 1-86, looked up): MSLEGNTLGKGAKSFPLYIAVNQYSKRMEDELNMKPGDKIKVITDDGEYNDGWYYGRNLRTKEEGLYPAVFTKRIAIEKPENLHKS

T9: Boi2, P39969
T9 sequence (P39969 32-116, looked up): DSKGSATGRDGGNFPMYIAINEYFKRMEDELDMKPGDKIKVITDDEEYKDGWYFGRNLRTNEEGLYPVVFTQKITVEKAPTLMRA

T10: Bud14, P27637
T10 sequence (P27637 247-328, looked up): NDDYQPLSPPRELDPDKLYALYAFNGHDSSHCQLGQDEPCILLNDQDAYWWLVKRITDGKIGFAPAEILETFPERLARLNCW

T11: Pex13, P80667
T11 sequence (P80667 295-386, looked up): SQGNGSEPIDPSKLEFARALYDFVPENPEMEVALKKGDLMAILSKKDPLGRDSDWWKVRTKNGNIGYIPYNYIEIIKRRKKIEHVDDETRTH

T12: Abp1, P15891
T12 sequence (P15891 535-592, looked up): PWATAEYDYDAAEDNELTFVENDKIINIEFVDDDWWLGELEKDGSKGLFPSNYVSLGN

T13: Sla1-3, P32790
T13 sequence (P32790 344-424, looked up): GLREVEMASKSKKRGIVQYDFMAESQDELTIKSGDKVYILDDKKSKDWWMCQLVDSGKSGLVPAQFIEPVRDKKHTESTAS

T14: Lsb4, P32793
T14 sequence (P32793 402-468, looked up): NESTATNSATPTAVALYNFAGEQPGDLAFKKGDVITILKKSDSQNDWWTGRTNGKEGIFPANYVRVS

T15: Hof1, Q05080
T15 sequence (Q05080 590-669, looked up): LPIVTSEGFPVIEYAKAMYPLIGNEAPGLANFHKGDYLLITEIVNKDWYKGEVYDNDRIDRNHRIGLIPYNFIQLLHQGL

T16: Pin3, Q06449
T16 sequence (Q06449 53-122, looked up): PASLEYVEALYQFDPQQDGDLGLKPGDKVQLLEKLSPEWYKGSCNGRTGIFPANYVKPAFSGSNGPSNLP

T17: Nbp2, Q12163
T17 sequence (Q12163 103-180, looked up): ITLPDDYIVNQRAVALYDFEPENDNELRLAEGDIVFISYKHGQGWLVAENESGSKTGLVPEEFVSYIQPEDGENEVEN

T18: Sla1-2, P32790
T18 sequence (P32790 60-140, looked up): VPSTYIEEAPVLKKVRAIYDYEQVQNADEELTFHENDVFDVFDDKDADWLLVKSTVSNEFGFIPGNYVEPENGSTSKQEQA

T19: Bzz1-1, P38822
T19 sequence (P38822 478-572, looked up): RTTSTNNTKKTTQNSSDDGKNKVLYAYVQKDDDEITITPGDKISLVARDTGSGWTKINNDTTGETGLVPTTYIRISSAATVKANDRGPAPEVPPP

T20: Hse1, P38753
T20 sequence (P38753 208-285, looked up): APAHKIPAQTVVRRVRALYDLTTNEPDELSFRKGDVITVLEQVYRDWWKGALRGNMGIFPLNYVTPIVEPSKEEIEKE

T21: Cyk3, Q07533
T21 sequence (Q07533 1-83, looked up): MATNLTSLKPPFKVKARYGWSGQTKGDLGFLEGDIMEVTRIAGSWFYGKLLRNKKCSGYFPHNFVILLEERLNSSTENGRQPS


Assays:
Assay in all cases: SPOT array
Myo5, Q04439 = target: T1, Myo5, Q04439; details: median of control spots 471
Rvs167, P39743 = details: median of control spots 2707
Chain of Rvs167, P39743 (P39743 419-482): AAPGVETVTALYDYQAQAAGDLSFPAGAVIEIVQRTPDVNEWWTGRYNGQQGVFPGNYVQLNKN

Bbc1, P47068 = target: T2, Bbc1, P47068; details: median of control spots 796
Cdc25, P04821 = target: T3, Cdc25, P04821; details: median of control spots 969
Lsb1, P53281 = target: T4, Lsb1, P53281; details: median of control spots 388
Bem1-1, P29366 = details: median of control spots 4282
Chain of Bem1-1, P29366 (P29366 55-141): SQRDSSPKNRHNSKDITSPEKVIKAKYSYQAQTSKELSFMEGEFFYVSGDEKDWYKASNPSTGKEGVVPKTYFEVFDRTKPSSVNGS

GST = details: median of control spots 978
Bem1-2, P29366 = details: median of control spots 4347
Chain of Bem1-2, P29366 (P29366 139-227): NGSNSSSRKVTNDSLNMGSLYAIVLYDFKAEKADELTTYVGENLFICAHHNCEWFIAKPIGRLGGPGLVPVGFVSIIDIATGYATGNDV

Fus1, P11710 = target: T5, Fus1, P11710; details: median of control spots 1200
Lsb3, P43603 = target: T6, Lsb3, P43603; details: median of control spots 406
Bzz1-2, P38822 = target: T7, Bzz1-2, P38822; details: median of control spots 4538
Boi1, P38041 = target: T8, Boi1, P38041; details: median of control spots 1162
Boi2, P39969 = target: T9, Boi2, P39969; details: median of control spots 1161
Myo3, P36006 = details: median of control spots 468
Bud14, P27637 = target: T10, Bud14, P27637; details: median of control spots 956
Pex13, P80667 = target: T11, Pex13, P80667; details: median of control spots 1341
Abp1, P15891 = target: T12, Abp1, P15891; details: median of control spots 935
Sla1-3, P32790 = target: T13, Sla1-3, P32790; details: median of control spots 5475
Lsb4, P32793 = target: T14, Lsb4, P32793; details: median of control spots 397
Hof1, Q05080 = target: T15, Hof1, Q05080; details: median of control spots 4086
Pin3, Q06449 = target: T16, Pin3, Q06449; details: median of control spots 2171
Nbp2, Q12163 = target: T17, Nbp2, Q12163; details: median of control spots 357
Sla1-2, P32790 = target: T18, Sla1-2, P32790; details: median of control spots 712
Bzz1-1, P38822 = target: T19, Bzz1-1, P38822; details: median of control spots 4446
Hse1, P38753 = target: T20, Hse1, P38753; details: median of control spots 1727
Sho1, P40073 = details: median of control spots 1148
Chain of Sho1, P40073 (P40073 287-367): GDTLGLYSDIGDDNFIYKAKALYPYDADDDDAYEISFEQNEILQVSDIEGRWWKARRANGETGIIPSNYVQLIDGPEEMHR

Cyk3, Q07533 = target: T21, Cyk3, Q07533; details: median of control spots 1451

Row | Binder | SPOT intensity (Myo5, Q04439) | SPOT intensity (Rvs167, P39743) | SPOT intensity (Bbc1, P47068) | SPOT intensity (Cdc25, P04821) | SPOT intensity (Lsb1, P53281) | SPOT intensity (Bem1-1, P29366) | SPOT intensity (GST) | SPOT intensity (Bem1-2, P29366) | SPOT intensity (Fus1, P11710) | SPOT intensity (Lsb3, P43603) | SPOT intensity (Bzz1-2, P38822) | SPOT intensity (Boi1, P38041) | SPOT intensity (Boi2, P39969) | SPOT intensity (Myo3, P36006) | SPOT intensity (Bud14, P27637) | SPOT intensity (Pex13, P80667) | SPOT intensity (Abp1, P15891) | SPOT intensity (Sla1-3, P32790) | SPOT intensity (Lsb4, P32793) | SPOT intensity (Hof1, Q05080) | other results
1 | PPPPPPPPPPLPQSL | 263 | 0 | 0 | 0 | 0 | 0 | 1 | 1 | 0 | 0 | 2 | 0 | 0 | 275 | 0 | 28 | 0 | 6 | 0 | 5 | SPOT intensity (Pin3, Q06449): 0; SPOT intensity (Nbp2, Q12163): 0; SPOT intensity (Sla1-2, P32790): 0; SPOT intensity (Bzz1-1, P38822): 5; SPOT intensity (Hse1, P38753): 0; SPOT intensity (Sho1, P40073): 0; SPOT intensity (Cyk3, Q07533): 1
2 | LPPPPPPPPPPPLPQ | 325 | 0 | 0 | 1 | 0 | 0 | 0 | 6 | 0 | 0 | 0 | 1 | 0 | 230 | 0 | 3 | 0 | 4 | 0 | 1 | SPOT intensity (Pin3, Q06449): 0; SPOT intensity (Nbp2, Q12163): 0; SPOT intensity (Sla1-2, P32790): 0; SPOT intensity (Bzz1-1, P38822): 3; SPOT intensity (Hse1, P38753): 0; SPOT intensity (Sho1, P40073): 0; SPOT intensity (Cyk3, Q07533): 1
3 | VNIPSPSSSPPPIPK | 529 | 0 | 0 | 0 | 0 | 0 | 0 | 49 | 0 | 0 | 0 | 0 | 0 | 464 | 1 | 0 | 1 | 3 | 0 | 0 | SPOT intensity (Pin3, Q06449): 0; SPOT intensity (Nbp2, Q12163): 2; SPOT intensity (Sla1-2, P32790): 0; SPOT intensity (Bzz1-1, P38822): 1; SPOT intensity (Hse1, P38753): 8; SPOT intensity (Sho1, P40073): 0; SPOT intensity (Cyk3, Q07533): 0
4 | PPLPRAPPVPPATFE | 137 | 0 | 3 | 1 | 7 | 2 | 0 | 59 | 0 | 0 | 4 | 1 | 0 | 269 | 0 | 14 | 27 | 1 | 0 | 183 | SPOT intensity (Pin3, Q06449): 0; SPOT intensity (Nbp2, Q12163): 2; SPOT intensity (Sla1-2, P32790): 1; SPOT intensity (Bzz1-1, P38822): 2; SPOT intensity (Hse1, P38753): 0; SPOT intensity (Sho1, P40073): 9; SPOT intensity (Cyk3, Q07533): 0
